Test results: the supplement of paper PMC10065799, “High-throughput profiling of sequence recognition by tyrosine kinases and SH2 domains using bacterial peptide display” (eLife, 2023)

Columns and labels:
[1] = tested on: AncSZ; assay: phosphorylation enrichment, bacterial display (enrichment ratio); higher = better substrate or ligand; peptides without Tyr show the background
[2] = biological target: FGFR3 (UniProt P22607); assay: as above
[3] = biological target: Fes (UniProt P07332); assay: as above
Fes, sequence (P07332 whole entry, looked up): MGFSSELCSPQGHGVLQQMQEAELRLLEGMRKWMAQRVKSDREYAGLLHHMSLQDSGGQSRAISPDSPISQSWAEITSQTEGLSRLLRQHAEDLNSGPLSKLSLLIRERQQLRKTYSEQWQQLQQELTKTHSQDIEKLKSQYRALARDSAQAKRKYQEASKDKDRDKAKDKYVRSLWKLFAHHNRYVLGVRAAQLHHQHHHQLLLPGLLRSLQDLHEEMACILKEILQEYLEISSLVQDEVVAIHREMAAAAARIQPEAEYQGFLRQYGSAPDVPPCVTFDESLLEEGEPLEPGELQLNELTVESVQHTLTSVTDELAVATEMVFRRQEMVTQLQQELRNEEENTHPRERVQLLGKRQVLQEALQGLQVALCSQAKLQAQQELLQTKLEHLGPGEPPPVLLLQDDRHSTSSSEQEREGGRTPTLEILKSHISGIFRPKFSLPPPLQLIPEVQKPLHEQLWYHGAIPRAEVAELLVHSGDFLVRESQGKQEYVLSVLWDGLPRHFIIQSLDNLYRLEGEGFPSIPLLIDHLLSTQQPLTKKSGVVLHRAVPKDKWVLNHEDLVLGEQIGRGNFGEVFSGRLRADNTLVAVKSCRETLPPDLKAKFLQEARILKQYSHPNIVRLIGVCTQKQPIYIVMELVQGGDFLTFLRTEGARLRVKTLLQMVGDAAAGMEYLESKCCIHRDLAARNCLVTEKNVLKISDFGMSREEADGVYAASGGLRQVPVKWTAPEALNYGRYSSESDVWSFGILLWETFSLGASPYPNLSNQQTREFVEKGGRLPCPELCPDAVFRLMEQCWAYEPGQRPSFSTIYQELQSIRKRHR

[4] = tested on: c-Src; assay: as above
[5] = tested on: c-Abl (mouse); assay: as above
[6] = biological target: EPHB2 (UniProt P29323); assay: as above
[7] = biological target: EPHB1 (UniProt P54762); assay: as above
[8] = biological target: MERTK (UniProt Q12866); assay: as above
MERTK, sequence (Q12866 whole entry, looked up): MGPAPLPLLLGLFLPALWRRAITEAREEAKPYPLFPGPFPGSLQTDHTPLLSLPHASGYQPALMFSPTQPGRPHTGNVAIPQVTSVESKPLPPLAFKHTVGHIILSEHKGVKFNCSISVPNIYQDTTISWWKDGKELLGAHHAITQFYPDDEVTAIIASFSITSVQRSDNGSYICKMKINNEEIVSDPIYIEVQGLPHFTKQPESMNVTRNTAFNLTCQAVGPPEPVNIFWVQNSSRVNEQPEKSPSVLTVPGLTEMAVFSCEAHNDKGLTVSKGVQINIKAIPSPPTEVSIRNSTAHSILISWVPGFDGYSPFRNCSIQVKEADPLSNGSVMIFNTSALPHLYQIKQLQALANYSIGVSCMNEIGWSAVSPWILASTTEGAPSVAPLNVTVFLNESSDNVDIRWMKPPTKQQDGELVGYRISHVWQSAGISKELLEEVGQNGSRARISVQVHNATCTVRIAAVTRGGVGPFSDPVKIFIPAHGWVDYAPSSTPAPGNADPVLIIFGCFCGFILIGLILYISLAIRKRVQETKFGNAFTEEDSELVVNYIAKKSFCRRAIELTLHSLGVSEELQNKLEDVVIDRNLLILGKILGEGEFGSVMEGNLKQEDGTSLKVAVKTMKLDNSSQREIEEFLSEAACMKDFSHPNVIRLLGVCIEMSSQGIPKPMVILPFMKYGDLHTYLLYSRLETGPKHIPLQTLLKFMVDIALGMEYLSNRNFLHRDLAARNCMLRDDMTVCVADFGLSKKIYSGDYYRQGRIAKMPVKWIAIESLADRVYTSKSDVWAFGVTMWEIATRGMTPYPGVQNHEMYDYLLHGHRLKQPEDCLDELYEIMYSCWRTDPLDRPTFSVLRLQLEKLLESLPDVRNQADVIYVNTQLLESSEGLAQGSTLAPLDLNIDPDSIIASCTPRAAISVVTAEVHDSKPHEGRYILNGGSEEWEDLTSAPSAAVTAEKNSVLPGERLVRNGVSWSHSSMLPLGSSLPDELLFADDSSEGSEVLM

[9] = biological target: Fyn (UniProt P06241); assay: as above
Fyn, sequence (P06241 whole entry, looked up): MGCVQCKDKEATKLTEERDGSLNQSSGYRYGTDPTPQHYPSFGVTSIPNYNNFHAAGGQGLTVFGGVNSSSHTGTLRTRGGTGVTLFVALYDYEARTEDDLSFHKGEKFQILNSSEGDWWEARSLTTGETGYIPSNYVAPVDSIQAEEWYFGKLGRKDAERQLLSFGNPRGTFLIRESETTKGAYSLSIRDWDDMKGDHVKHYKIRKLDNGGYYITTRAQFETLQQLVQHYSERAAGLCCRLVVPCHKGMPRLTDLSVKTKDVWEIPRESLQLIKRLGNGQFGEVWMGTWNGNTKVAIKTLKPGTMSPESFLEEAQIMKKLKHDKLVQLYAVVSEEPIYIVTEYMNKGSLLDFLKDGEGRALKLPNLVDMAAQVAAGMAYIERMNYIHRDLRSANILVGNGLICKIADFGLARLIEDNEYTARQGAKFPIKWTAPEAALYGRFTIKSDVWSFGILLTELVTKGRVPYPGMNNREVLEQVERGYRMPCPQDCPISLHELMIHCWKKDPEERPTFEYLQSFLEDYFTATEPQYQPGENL

[10] = biological target: Hck (UniProt P08631); assay: as above
Hck, sequence (P08631 whole entry, looked up): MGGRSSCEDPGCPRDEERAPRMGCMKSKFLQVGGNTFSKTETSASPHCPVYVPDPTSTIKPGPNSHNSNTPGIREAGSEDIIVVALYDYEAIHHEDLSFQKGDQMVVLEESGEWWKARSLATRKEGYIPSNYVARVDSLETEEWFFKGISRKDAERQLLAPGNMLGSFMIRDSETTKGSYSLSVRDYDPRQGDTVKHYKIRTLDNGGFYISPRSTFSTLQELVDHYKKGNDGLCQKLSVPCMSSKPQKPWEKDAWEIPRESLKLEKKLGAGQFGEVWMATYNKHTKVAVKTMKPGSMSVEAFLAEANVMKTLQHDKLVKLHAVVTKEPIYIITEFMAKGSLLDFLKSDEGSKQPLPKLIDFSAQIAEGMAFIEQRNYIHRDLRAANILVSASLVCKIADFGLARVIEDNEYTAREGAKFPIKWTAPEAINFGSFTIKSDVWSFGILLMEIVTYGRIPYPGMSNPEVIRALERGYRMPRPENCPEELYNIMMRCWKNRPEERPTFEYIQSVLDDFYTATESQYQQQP

[11] = tested on: Fer (mouse); assay: as above
[12] = biological target: FGFR1 (UniProt P11362); assay: as above
FGFR1, sequence (P11362 whole entry, looked up): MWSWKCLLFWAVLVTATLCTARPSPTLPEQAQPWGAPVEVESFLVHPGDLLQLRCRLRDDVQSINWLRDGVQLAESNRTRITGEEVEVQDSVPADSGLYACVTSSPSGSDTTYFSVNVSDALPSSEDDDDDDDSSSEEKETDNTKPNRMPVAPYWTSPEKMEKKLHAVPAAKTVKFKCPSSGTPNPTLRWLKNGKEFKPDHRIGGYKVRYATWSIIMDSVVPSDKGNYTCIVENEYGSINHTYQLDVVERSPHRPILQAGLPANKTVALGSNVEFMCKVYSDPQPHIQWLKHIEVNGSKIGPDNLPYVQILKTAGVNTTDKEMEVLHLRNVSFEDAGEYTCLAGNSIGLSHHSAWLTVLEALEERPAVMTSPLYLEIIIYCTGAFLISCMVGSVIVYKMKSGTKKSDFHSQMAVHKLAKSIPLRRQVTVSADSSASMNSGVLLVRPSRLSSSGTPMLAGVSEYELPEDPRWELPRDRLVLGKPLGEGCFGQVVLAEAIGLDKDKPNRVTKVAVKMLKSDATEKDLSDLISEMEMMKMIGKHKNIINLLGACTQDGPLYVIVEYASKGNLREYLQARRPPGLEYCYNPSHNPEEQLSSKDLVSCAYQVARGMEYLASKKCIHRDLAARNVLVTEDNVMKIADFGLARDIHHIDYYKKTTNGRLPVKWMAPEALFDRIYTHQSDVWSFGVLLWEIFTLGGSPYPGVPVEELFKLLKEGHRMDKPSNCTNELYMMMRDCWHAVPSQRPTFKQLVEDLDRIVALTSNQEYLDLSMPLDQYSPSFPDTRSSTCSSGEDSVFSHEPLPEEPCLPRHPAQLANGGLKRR

[13] = biological target: Jak2 (UniProt O60674); assay: as above
Jak2, sequence (O60674 whole entry, looked up): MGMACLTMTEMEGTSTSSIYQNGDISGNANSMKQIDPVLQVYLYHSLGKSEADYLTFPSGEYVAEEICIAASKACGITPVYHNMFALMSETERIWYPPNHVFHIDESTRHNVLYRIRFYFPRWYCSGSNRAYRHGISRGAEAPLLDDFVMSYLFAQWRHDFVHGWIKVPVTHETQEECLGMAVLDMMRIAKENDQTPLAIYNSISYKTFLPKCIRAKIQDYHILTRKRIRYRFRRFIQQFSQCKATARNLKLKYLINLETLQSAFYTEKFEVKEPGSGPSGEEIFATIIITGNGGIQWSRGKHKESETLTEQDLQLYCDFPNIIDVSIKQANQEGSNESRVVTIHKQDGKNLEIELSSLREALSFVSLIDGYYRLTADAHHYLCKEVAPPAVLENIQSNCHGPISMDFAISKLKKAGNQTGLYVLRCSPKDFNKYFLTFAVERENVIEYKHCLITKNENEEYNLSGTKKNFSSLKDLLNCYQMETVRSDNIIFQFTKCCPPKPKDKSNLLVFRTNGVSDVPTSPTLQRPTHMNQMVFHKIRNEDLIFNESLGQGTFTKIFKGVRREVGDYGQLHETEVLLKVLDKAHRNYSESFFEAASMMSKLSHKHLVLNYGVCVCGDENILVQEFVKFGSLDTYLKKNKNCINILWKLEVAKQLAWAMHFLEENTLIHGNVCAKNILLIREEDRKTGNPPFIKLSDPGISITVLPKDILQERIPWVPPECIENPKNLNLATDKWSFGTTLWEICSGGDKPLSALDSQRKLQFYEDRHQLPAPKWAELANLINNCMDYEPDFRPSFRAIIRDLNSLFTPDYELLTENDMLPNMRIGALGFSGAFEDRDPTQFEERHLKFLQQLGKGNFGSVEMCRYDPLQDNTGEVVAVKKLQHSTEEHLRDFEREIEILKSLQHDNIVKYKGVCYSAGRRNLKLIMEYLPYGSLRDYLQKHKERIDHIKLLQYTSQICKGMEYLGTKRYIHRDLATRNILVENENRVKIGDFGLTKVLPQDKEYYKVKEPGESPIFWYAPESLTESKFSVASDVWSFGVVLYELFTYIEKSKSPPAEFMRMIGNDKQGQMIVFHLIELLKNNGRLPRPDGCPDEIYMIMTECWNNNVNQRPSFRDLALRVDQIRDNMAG

[14] = biological target: Grb2 SH2 (UniProt P62993); assay: SH2 binding enrichment of the phosphorylated peptide, bacterial display (enrichment ratio); higher = better substrate or ligand; peptides without Tyr show the background
[15] = biological target: SHP2-C SH2; assay: as above
[16] = biological target: c-Src SH2; assay: as above
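Wherever SH2 binding enrichment of the phosphorylated peptide, bacterial display is given: peptide library displayed on the E. coli surface as eCPX fusions, selected cells deep-sequenced, score is each peptide's frequency after selection divided by its frequency in the input.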
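Wherever phosphorylation enrichment, bacterial display is given: 11-residue human phosphosite peptides and single-mutation variants displayed on the E. coli surface, counted by deep sequencing, each peptide's frequency after selection divided by its frequency in the unselected input library; frequency after pTyr selection over input frequency; kinase dosed for 20-30% of maximal phosphorylation in three min.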

Sequence | SH2 binding enrichment [14] | SH2 binding enrichment [15] | SH2 binding enrichment [16] | phosphorylation enrichment [1] | phosphorylation enrichment [2] | phosphorylation enrichment [3] | phosphorylation enrichment [4] | phosphorylation enrichment [5] | phosphorylation enrichment [6] | phosphorylation enrichment [7] | phosphorylation enrichment [8] | phosphorylation enrichment [9] | phosphorylation enrichment [10] | phosphorylation enrichment [11] | phosphorylation enrichment [12] | phosphorylation enrichment [13]
RSSKRYLKTRS [LPL_Y329_M328R] | 0.628 | 0.58 | 0.504 | 1.4 | 1.11 | 1.17 | 0.713 | 1.03 | 1.11 | 0.919 | 1.24 | 0.937 | 0.894 | 0.852 | 1.03 | 0.725
RSYSPYDYQPC [TNS1_Y796] | 1.2 | 0.638 | 1.26 | 1.52 | 1.06 | 0.912 | 3.15 | 0.668 | 2.31 | 1.81 | 3.28 | 3.66 | 1.29 | 0.894 | 1.27 | 0.789
RTVDVYFGPQM [KIRREL3_Y332_R336Q] | 0.838 | 0.453 | 0.304 | 1.51 | 0.919 | 1.15 | 1.73 | 1.53 | 0.677 | 1.04 | 0.577 | 1.45 | 1.73 | 0.71 | 0.824 | 1.25
RYLYYYSYLLK [PTEN_Y178_V175L] | 0.878 | 1.57 | 0.966 | 1.93 | 2.91 | 1.7 | 1.76 | 2.23 | 1.94 | 3.51 | 5.64 | 0.58 | 1.65 | 0.676 | 3.1 | 3.29
SAGSSYSISGI [PAX5_Y179] | 0.852 | 0.535 | 0.487 | 0.53 | 0.438 | 0.516 | 0.457 | 0.417 | 0.347 | 0.368 | 0.426 | 0.412 | 0.386 | 0.419 | 0.395 | 0.559
SARFRYLVAEK [LDHB_Y173_M175V] | 0.811 | 0.615 | 0.516 | 0.698 | 0.425 | 0.635 | 0.449 | 0.569 | 0.486 | 0.351 | 0.327 | 0.415 | 0.458 | 0.447 | 0.424 | 0.607
SDGHEYIYVDR [PDGFRB_Y579_P584R] | 0.9 | 0.579 | 0.712 | 1.33 | 1.43 | 0.995 | 1.6 | 0.513 | 0.645 | 0.663 | 0.514 | 1.11 | 1.12 | 0.514 | 2.04 | 1.01
SDRNLYSKNLV [CFAP58_Y501] | 0.823 | 0.811 | 0.423 | 0.626 | 0.363 | 0.516 | 0.435 | 0.467 | 0.38 | 0.268 | 0.748 | 0.411 | 0.555 | 1.03 | 0.325 | 0.491

Second part, led by results:

SH2 binding enrichment [14] | SH2 binding enrichment [15] | SH2 binding enrichment [16] | Sequence | phosphorylation enrichment [1] | phosphorylation enrichment [2] | phosphorylation enrichment [3] | phosphorylation enrichment [4] | phosphorylation enrichment [5] | phosphorylation enrichment [6] | phosphorylation enrichment [7] | phosphorylation enrichment [8] | phosphorylation enrichment [9] | phosphorylation enrichment [10] | phosphorylation enrichment [11] | phosphorylation enrichment [12] | phosphorylation enrichment [13]
0.83 | 0.712 | 0.553 | RSSKMYLKTRS [LPL_Y329] | 1.07 | 0.885 | 1.24 | 0.452 | 0.585 | 0.792 | 0.484 | 1.53 | 0.631 | 0.758 | 0.541 | 0.8 | 0.827
0.981 | 0.964 | 0.448 | RSSPTYRDCLQ [LARGE2_Y682] | 1.45 | 0.522 | 0.858 | 0.369 | 0.539 | 0.472 | 0.556 | 0.42 | 0.469 | 0.385 | 0.458 | 0.523 | 0.667
0.901 | 0.593 | 0.348 | RTVDVYFGPRM [KIRREL3_Y332] | 1.15 | 1.23 | 1.14 | 0.72 | 0.65 | 1.33 | 0.643 | 0.591 | 1.06 | 1.5 | 0.711 | 0.758 | 0.618
0.959 | 0.612 | 0.481 | RVYRDYVLKSA [HTATIP2_Y111_D108Y] | 1.07 | 0.825 | 1.05 | 0.794 | 0.624 | 0.76 | 1.01 | 0.693 | 0.645 | 0.841 | 0.493 | 0.833 | 0.836
1.47 | 7.24 | 6.75 | RYVVLYDAELT [ERCC4_Y581] | 1.3 | 1.04 | 1.49 | 0.605 | 0.817 | 1.96 | 2.77 | 1.98 | 0.657 | 0.66 | 0.629 | 0.736 | 1.24
1.09 | 1.39 | 0.857 | RYVYYYSYLLK [PTEN_Y178] | 1.74 | 3.85 | 1.82 | 2.48 | 1.83 | 1.64 | 2.55 | 5.99 | 1.15 | 1.99 | 1.09 | 4.48 | 2.76
0.997 | 0.938 | 0.638 | SASWTYVRWFD [PTDSS1_Y274_P269S] | 1.08 | 0.854 | 1.26 | 0.626 | 0.905 | 0.766 | 0.835 | 0.445 | 0.501 | 0.64 | 0.487 | 0.677 | 1.22
0.994 | 0.892 | 0.534 | SDIEEYVHRIG [DDX3X_Y525] | 0.978 | 0.567 | 0.972 | 0.41 | 0.953 | 0.456 | 0.473 | 0.384 | 0.429 | 0.455 | 0.367 | 0.426 | 0.791
